Measured values reported in US11059903B2, “Anti-PSMA antibodies, uses thereof and conjugates thereof” (Polytherics Limited, priority 2016, dated 2021).

Assay: Heat stress test, aggregation analysed by SEC
Format: physicochemical
Conditions: for Ab in aggregated form (%) / Ab in native conformation (%): post stress test: 0.5 mg/mL in PBS, 75° C. for 30 min, SEC % area
Method: Antibody samples (0.5 mg/mL in PBS) were incubated at 75° C. for 30 min followed by incubation in an ice-bath for 5 min prior to being analysed for their extent of aggregation. Analysis of antibody solutions was carried out by Size Exclusion Chromatography (SEC) and by turbidity measurements.
SEC was performed using a TOSOH Bioscience TSK gel Super SW 3000 column. UV absorbance at 280 nm was monitored during an isocratic elution with a 0.2 M Potassium phosphate buffer, pH 6.8 (0.2 M potassium chloride and 15% isopropanol). The elution times and number of peaks indicate whether the sample contains aggregated, degraded or native antibody. The % area under the curve (Abs280) was used to determine the quantity of each species present in the SEC analysis.

Molecule | Stability compared with AB-02 to AB-06 antibodies (heat stress test, in words) | Ab in aggregated form (%) | Ab in native conformation (%)
AB-09: Prior art anti-PSMA antibody, heavy chain SEQ ID No 15, light chain SEQ ID No 16 (antibody, V domains shown) VH: MELGLRWVLLVALLRGVQCQVQLVESGGGVVQPGRSLRLSCAASGFTFSNYVMHWVRQAPGKGLEWVAIIWYDGSNKYYADSVKGRFTISRDNSKNTLYLQMNSLRAEDTAVYYCAGGYNWNYEYHYYGMDVWGQGTTVTVSS VL: MRVPAQLLGLLLLCFPGARCDIQMTQSPSSLSASVGDRVTITCRASQGITNYLAWFQQKPGKAPKSLIYAASSLQSGVPSKFSGSGSGTDFSLTISSLQPEDFATYYCQQYNSYPITFGQGTRLEIK | less stable | 100 | 0
AB-03: Humanised anti-PSMA antibody, heavy chain SEQ ID No 7, light chain SEQ ID No 8 (antibody, V domains shown) VH: EVQLVQSGAEVKKPGASVKVSCKASGYTFTEYTIHWVRQAPGKGLEWIGNINPNNGGTTYNQKFEDRVTITVDKSTSTAYMELSSLRSEDTAVYYCAGGWTFDYWGQGTTVTVSS VL: DIQMTQSPSTLSASVGDRVTITCKASQDVGTAVDWYQQKPGQAPKLLIYWASTRHTGVPDRFSGSGSGTDFTLTISRLQPEDFAVYYCQQFTRYPLTFGQGTKVDIK |  | 64 | 36
AB-04: Humanised anti-PSMA antibody, heavy chain SEQ ID No 9, light chain SEQ ID No 8 (antibody, V domains shown) VH: EVQLVQSGAEVKKPGASVKVSCKASGYTFTEYTIHWVRQAPGKGLEWIGNINPNNGGTTYNQKFEDRVTITVDKSTSTAYMELSSLRSEDTAVYYCAGAWTMDYWGQGTTVTVSS VL: DIQMTQSPSTLSASVGDRVTITCKASQDVGTAVDWYQQKPGQAPKLLIYWASTRHTGVPDRFSGSGSGTDFTLTISRLQPEDFAVYYCQQFTRYPLTFGQGTKVDIK |  | 73 | 27
AB-05: Humanised anti-PSMA antibody, heavy chain SEQ ID No 5, light chain SEQ ID No 10 (antibody, V domains shown) VH: EVQLVQSGAEVKKPGASVKVSCKASGYTFTEYTIHWVRQAPGKGLEWIGNINPNNGGTTYNQKFEDRVTITVDKSTSTAYMELSSLRSEDTAVYYCAAYWLFDYWGQGTTVTVSS VL: DIQMTQSPSTLSASVGDRVTITCKASQDVGTAVDWYQQKPGQAPKLLIYWASTRHTGVPDRFSGSGSGTDFTLTISRLQPEDFAVYYCQQYNAYSLTFGQGTKVDIK |  | 98 | 2
